The values that follow come from PMC6037669, “Optimization of a MT1-MMP-targeting Peptide and Its Application in Near-infrared Fluorescence Tumor Imaging” (Scientific Reports, 2018).

Ends that are not written are not given here. Peptide text beside a SMILES is read from it. * marks the point of attachment. X1 = CC[N+]1=C(C=CC=CC=C2N(CCCCCC(=O)*)c3ccc4c(S(=O)(=O)O)cc(S(=O)(=O)O)cc4c3C2(C)C)C(C)(C)c2c1ccc1c(S(=O)(=O)O)cc(S(=O)(=O)[O-])cc21

Data set [1] has as its system MT1-MMP. Nature of the data set: AFM force curve measurement, peptide on tip against immobilized MT1-MMP. The class given is binding, human. The note with it: 25 °C; for Binding force (peak position of force histogram): peptide on AFM tip via NHS-PEG18-aldehyde, MT1-MMP on APTES mica, PBS, 300 force curves, Gaussian fit. On the procedure:
(§1) The MT1-MMP catalytic domain (20 kDa) was expressed in Escherichia coli (E. coli) as inclusion bodies. The activated form was produced through refold method. The recombinant human MT1-MMP catalytic domain was produced by E. coli BL21 that carried expression plasmids. The bacteria were grown to an optical density of 0.4 at 37 °C prior to induction. The overexpression of the protein of interest was induced by adding […] to a final concentration of 0.5 mM. Cultivation was proceeded for 4 h before the bacteria were broken by an ultrasonic wave. The inclusion bodies (proMT1-MMP) were solubilized and purified through his-tag affinity chromatography (General Electric, USA), as well as refolded by using dialysis bags to gradually reduce high denaturant concentrations in this process. The refolding buffer included 50 mM HEPES, 10 mM CaCl2, 200 mM NaCl, 1 mM phenylmethylsulfonyl fluoride, 20 μM ZnCl2, 0.01% Brij-35, 5% Glycerol, 100 μg/ml DNase, at a pH 7.5.
The surface layer of the mica was stripped to expose the silanol group-coated surface. Then, the mica was treated with 3-aminopropyltriethoxysilane (APTES, vapor) for 1.5 h at room temperature and dried in vacuum. To immobilize the protein or the peptide, the activated mica surface was immerged into MT1-160p or MT1-MMP solution (300 µg/mL in PBS) for 15 min, rinsed and kept in PBS buffer.
AFM cantilever tips (MSCT) were purchased from Veeco (CA). The polypeptides were covalently immobilized on the tips by using chemical reactions as previously described. […]
The force curves were measured by using a PicoPSM 5500 instrument (Agilent Technologies, MA). […] The interaction force were detected at different points on the substrate. Over 1,000 force–distance cycles were collected, and a total of 300 force curves were recorded at different positions on the substrate. The average force values were summarized and calculated in the form of histograms and were expressed as a probability (%), which was obtained by dividing each count number by the total number of measured force curves.

In data set [2] the test system is MT1-MMP. Briefly: Isothermal titration calorimetry. Set-up: species or system human. The note with it: 25 °C; 10 mM HEPES, 150 mM NaCl, pH 7.4; 1000 rpm; one-site binding model. On the procedure: The ITC experiments were conducted by using a MicroCal ITC-200 system (General Electric, USA) to determine the thermodynamic parameters of the polypeptides. The peptide of interest was dissolved in 10 mM HEPES and 150 mM NaCl solution at pH 7.4. All titrations were performed at 25 °C by injecting aliquots of a 40 μL MT1-160p (1 mM) degassed solution in a syringe into the calorimeter cell containing 200 μL of binding peptides (0.1 mM) degassed solution at a stirring rate of 1000 rpm. The baseline was corrected manually and the heat data were processed by fitting the ITC data into the NanoAnalyze software.

A short description of data set [3]: Whole-body small animal near-infrared fluorescence imaging. The note with it: athymic nude BALB/c, mouse, in vivo, iv. On the procedure: (§2) All of the animal experiments were conducted in accordance with the principles and procedures outlined in the ethics committee of Jilin University, and approved by Animal Care and Use Committee (CC/ACUCC) of Xiamen University. Subcutaneous sites of athymic nude mice (BALB/c, 6 weeks old, female, 19–21 g) were injected with a suspension of 1 × 10^7 breast carcinoma MDA-MB-435 cells in PBS (100 μL). Tumor growth was assessed with caliper measurements every 2 days, and tumor size was determined using the formula: V = a^*(b^2)/2, where a is the maximum length and b is the maximum width of each tumor in mm respectively. The tumor-bearing mice (n = 5/group) were subjected to optical imaging experiments once the tumor volume (in the right front leg region) reached average size of 200 mm^3 (Error less than 18 mm^3), mice were randomly allocated into three groups: Cy5.5-MT1-AF7p-H4R, Cy5.5-MT1-AF7p-H4R-Block or Cy5.5-MT1-AF7p were injected via their tail vein with […]. Fluorescent images and analysis were performed by using an IVIS Lumina II imaging system (Caliper Life Sciences, MA, USA; Excitation Filter: 630 nm, Emission Filter: 700 nm) at different time point post-injection (1, 2, 4, 6, 12, and 24 h). During injection and image acquiring process, mice were anesthetized with 2.5% isoflurane in oxygen at a flow of 1.5 L/min. Images were normalized to the same scale and analyzed. For semi-quantitative comparison, the regions of interest (ROI) were drawn over the tissues of interest, and the scaled average signal (photons cm^−2 s^−1) for each area was measured. Fluorescent signals from ROI were further corrected by the mice body weights. Results were presented as the mean ± SD for a group of five animals.

The subject of data set [4] is MDA-MB-435 tumors (MT1-MMP). The data set is described as above. On the procedure:
as §2

The test system of data set [5] is MDA-MB-435 tumors (MT1-MMP). On the procedure:
The mice were injected with 1 nM Cy5.5-peptide to evaluate the distribution of affinity peptides in tumor tissues and major organs. At 4 h post-injection, the tumor-bearing mice were sacrificed, and their major organs, tissues, and tumors were harvested and placed on a black paper for ex vivo imaging (IVIS Lumina II, Caliper Life Sciences, MA, USA). The results were presented as the average scaled signal from the organs and the tumors.

Data set [6] has as its system MDA-MB-435 tumors (MT1-MMP). The note with it: cited from earlier work. On the procedure:
Among the mutated peptides selected by virtual screening and docking based on the calculated lowest binding energy, the binding affinities were tested by conducting AFM, ITC, and cell fluorescence imaging in vitro. The tumor targeting effects of the optimal peptide were further confirmed by performing an in vivo imaging experiment in a tumor-bearing mice model.

A further data set relates to DQ-gelatin from pig skin. Nature of the data set: Enzymatic activity of recombinant MT1-MMP. It is filed as biochemical. The note with it: refolded recombinant catalytic domain; unit not given. On the procedure: as §1, with “The refolding buffer included 50 mM HEPES, 10 mM CaCl2, 200 mM NaCl, 1 mM phenylmethylsulfonyl fluoride, 20 μM ZnCl2, 0.01% Brij-35, 5% Glycerol, 100 μg/ml DNase, at a pH 7.5.” left out
The protein samples from induced lysates, inclusion bodies and renaturation were separated by 15% reducing sodium dodecyl sulfate–polyacrylamide gel electrophoresis (SDS–PAGE) gel followed by Coomassie Brilliant Blue R-250 (CBB) staining. Protein concentration was measured at each step by the BCA Protein Assay Kit (Thermo Scientific, USA) according to manufacturer’s instructions. After renaturation of MT1-MMP, the enzymatic activity of the recombinant MT1-MMP was measured by using fluorescein conjugated substrate, DQ™-gelatin from pig skin (Molecular Probes).

In the case of `CC[N+]1=C(C=CC=CC=C2N(CCCCCC(=O)N[C@@H](Cc3c[nH]cn3)C(=O)N[C@@H](Cc3c[nH]c4ccccc34)C(=O)N[C@@H](CCCCN)C(=O)N[C@@H](CCCNC(=N)N)C(=O)N[C@@H](CC(C)C)C(=O)N[C@@H](Cc3c[nH]cn3)C(=O)N[C@@H](CC(N)=O)C(=O)N[C@H](C(=O)N[C@@H](CCCCN)C(=O)N[C@H](C(=O)N[C@@H](Cc3ccccc3)C(=O)N[C@@H](CC(C)C)C(=O)O)[C@@H](C)O)[C@@H](C)O)c3ccc4c(S(=O)(=O)O)cc(S(=O)(=O)O)cc4c3C2(C)C)C(C)(C)c2c1ccc1c(S(=O)(=O)O)cc(S(=O)(=O)[O-])cc21` [Cy5.5-MT1-AF7p-H4R] (X1-HWKRLHNTKTFL-OH; C-terminus assumed), the “Binding force (peak position of force histogram)” value in the data set with MT1-MMP [1] is listed as 260 pN. Also, in the data set on MT1-MMP [2], the “Binding constant (Ka)” value was determined as 175000 M⁻¹. For the same compound, in data set [3], the tissue to tissue ratio at 1 h was determined as 1.22 ± 0.22, the tissue to tissue ratio at 2 h came to 2.77 ± 0.31 and the tissue to tissue ratio at 4 h amounted to 4.26 ± 0.56. For the same compound, the “Tumor signal after blocking with free peptide” value in data set [4] (excess free MT1-AF7p-H4R (1 μM) injected 30 min prior) is listed as “Low Cy5.5-MT1-AF7p-H4R accumulation was observed”. Besides, in data set [4] (i.v., MDA-MB-435 tumor), the “Time of maximum tumor accumulation (T/M)” value was 4 h. The “Clearance route” value in data set [5] (4 h post-injection, ex vivo quantification) is on record as “prominent renal clearance”. Moreover, the “Tumor fluorescent signal ex vivo” value in data set [5] (4 h post-injection, i.v. 1 nM Cy5.5-peptide, average scaled signal) was 8.04 × 10^7. Moreover, the “Tumor fluorescent signal relative to MT1-AF7p” value in data set [5] (4 h post-injection, 8.04 × 10^7 vs. 2.51 × 10^7) was determined as 3.2 times. In data set [5] (ex vivo, blocked with excess free MT1-AF7p-H4R), the “Fluorescent signals in blocking group” value is recorded as “very few fluorescent signals were detected in the blocking group”.

Take `CC[N+]1=C(C=CC=CC=C2N(CCCCCC(=O)N[C@@H](Cc3c[nH]cn3)C(=O)N[C@@H](Cc3c[nH]c4ccccc34)C(=O)N[C@@H](CCCCN)C(=O)N[C@@H](Cc3c[nH]cn3)C(=O)N[C@@H](CC(C)C)C(=O)N[C@@H](Cc3c[nH]cn3)C(=O)N[C@@H](CC(N)=O)C(=O)N[C@H](C(=O)N[C@@H](CCCCN)C(=O)N[C@H](C(=O)N[C@@H](Cc3ccccc3)C(=O)N[C@@H](CC(C)C)C(=O)O)[C@@H](C)O)[C@@H](C)O)c3ccc4c(S(=O)(=O)O)cc(S(=O)(=O)O)cc4c3C2(C)C)C(C)(C)c2c1ccc1c(S(=O)(=O)O)cc(S(=O)(=O)[O-])cc21` [Cy5.5-MT1-AF7p] (X1-HWKHLHNTKTFL-OH; C-terminus assumed): in the data set with MT1-MMP [1], the “Binding force (peak position of force histogram)” value was 150 pN. Also, in the data set on MT1-MMP [2], the “Binding constant (Ka)” value stood at 107000 M⁻¹. Moreover, in data set [3], the tissue to tissue ratio at 4 h turned out to be 1.98. The “Tumor accumulation in MDA-MB-435 xenografts” value in data set [6] (compared with negative control) is “significantly higher tumor accumulation”.

Consider Cy5.5 [reference compound], for which the “Tumor accumulation of free dye” value in data set [6] (within 48 h post-injection) is given as “did not accumulate in the tumor site within 48 h post-injection”.

For HWKHLHNTKTFL [MT1-AF7p], the “Binding constant (Ka)” value in the data set with MT1-MMP [2] is 107000 M⁻¹.

As to “HWKKLHNTKTFL [MT1-AF7p-H4K, MT1-AF7p with histidine 4 mutated to Lys]”, in the data set on MT1-MMP [1] (single-molecule recognition force spectroscopy), the “Affinity to MT1-MMP by AFM” value was “had a nearly identical binding capacity with MT1-MMP than MT1-AF7P”.

Turning to “HWKRLHNTKTFL [MT1-AF7p-H4R, HWKRLHNTKTFL]”, in data set [4] (compared with MT1-AF7p), the “Specificity and affinity to MT1-MMP in optical imaging in vivo” value is “higher specificity and affinity to the receptor (MT1-MMP) in optical imaging in vivo”. Moreover, the “Tumor imaging effect vs MT1-AF7p” value in data set [4] (i.v. tail vein, 10 μM (1 nM in 100 μL PBS), Cy5.5-labeled, p ≤ 0.01, n = 5/group) is given as “better than MT1-AF7p (p ≤ 0.01)”. In addition, the “Fluorescence intensity in tumor site vs MT1-AF7p” value in data set [4] (i.v. tail vein, all time points from 2 h to 24 h, Cy5.5-labeled, n = 5/group) is listed as “considerably stronger than that of MT1-AF7p at all the time points from 2 h to 24 h”.

Turning to “MT1-MMP: recombinant human MT1-MMP catalytic domain (20 kDa) refolded from E. coli inclusion bodies”, the “Enzymatic activity against DQ-gelatin” value with DQ-gelatin from pig skin is 9.81 × 10^6.
